The text below walks through data of patent US20120264231A1, “ASSAY FOR ORAI CALCIUM CHANNEL REGULATORS” (IMMUNE DISEASE INSTITUTE, INC., priority 2009, published 2012).

The test addresses T1, ORAI1 (R91W) (Homo sapiens, UniProt Q96D31, R91W).
T1 construct: the ORAI functional fragment is ORAI1 (65-301), ORAI1 (65-87), or full length ORAI1; made in house; host or cells: S. cerevisiae NY17 (sec6-4), isolated secretory vesicles
The experiment in a line: Cameleon D3 cpV intravesicular Ca^2+ assay, vesicles with ORAI1 (R91W). It counts as biochemical. The conditions noted are these: vesicles containing ORAI1 (R91W). From the text:
Confirmation that Ca^2+ release from the vesicles was due to gating of the ORAI 1 channel was sought. […] It was concluded that the in vitro assay reflects STIM 1-dependent gating of ORAI1 and Ca^2+ flux through the ORAI1 channel pore.
The yeast expression vector pBEVY-GU60 allows for simultaneous expression of two transgenes by means of the bidirectional GAL1-10 promoter. The FRET-based calcium sensors D3 cpV and D4 cpV53 were fused at the N-terminus with the S. cerevisiae α-mating factor secretion signal (Bitter, G. A., et al., Proc Natl Acad Sci USA 81, 5330-5334 (1984)), which directs proteins into the secretory pathway, and introduced into pBEVY-GU in the following way. Vector pPIC9 (Invitrogen) served as template for PCR amplification of the α-mating factor secretion signal (5′ primer: […] (SEQ ID NO: 2); 3′ primer: […] (SEQ ID NO: 3)), introducing an EcoRI site at the 5′ end, and a sequence complementary to that encoding the N-terminus of the calcium sensor at the 3′ end. DNA encoding the N-terminal portion of the calcium sensor D3 cpV, comprising CFP, was amplified by PCR (5′ primer: […] (SEQ ID NO: 4); 3′ primer: […] (SEQ ID NO: 5)), introducing an SphI site followed by a stop codon and a NotI site at the 3′ end of the resulting DNA fragment. […]

T1 sequence (Q96D31 2-301 R91W): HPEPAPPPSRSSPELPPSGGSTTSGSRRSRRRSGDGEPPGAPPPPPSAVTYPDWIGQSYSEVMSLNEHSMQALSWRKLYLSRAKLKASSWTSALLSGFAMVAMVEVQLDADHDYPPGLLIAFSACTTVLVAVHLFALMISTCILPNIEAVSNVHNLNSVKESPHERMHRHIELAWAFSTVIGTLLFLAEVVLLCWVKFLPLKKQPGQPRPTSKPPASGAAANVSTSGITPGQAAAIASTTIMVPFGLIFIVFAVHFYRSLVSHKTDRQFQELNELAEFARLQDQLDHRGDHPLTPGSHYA

As to “STIM1^CT: cytoplasmic region of STIM1, mouse residues 233-685, His-tagged recombinant protein expressed in E coli”, the “Ca^2+ release from vesicles” value is on record as “did not elicit Ca^2+ release”.
